In patent US9688760B2, “Anti-leukocyte adhesion for the mitigation of potential adverse events caused by CD3-specific binding domains” (AMGEN RESEARCH (MUNICH) GMBH, priority 2013, dated 2017):

Tested on: HBMEC
Assay: In vitro flow chamber: T cell-rolling on HBMEC, long-term conditions
Format: cell-based, human
Details: non-stimulated HBMEC, 45 min
Method: Human brain microvascular endothelial cells (HBMEC) (#1000, Sciencell Research Laboratories) or human umbilical vein endothelial cells (HUVEC) (#C-12200, Promocell) were used as endothelial cell-model. Cryopreserved HBMEC at passage 1 (>5×10^5 cells/ml) were first cultivated in fibronectin-coated Nunclon-treated 75 cm^2 cell culture flasks (#156499, Nunc) at 37° C. and 5% CO2 in a Heraeus Cytoperm 2 (Thermo Scientific) according to the manufacturer's instructions. Sub-cultivation of HBMEC was done with the Detach Kit (#C-41200, Promocell) consisting of HEPES-buffered balanced salt solution (#C-40000, Promocell), trypsin-EDTA solution (0.04%/0.03%) (#C-41000, Promocell) and trypsin neutralization solution (TNS, #C-41100, Promocell). Briefly, the medium was aspirated from the HBMEC-layer and cells were washed with 2 ml of HEPES-buffered balanced salt solution. Addition of 2 ml of trypsin-EDTA solution for 1-5 min at room temperature led to detachment of HBMEC from the flask bottom. Inactivation of trypsin-EDTA solution was performed by addition of 2 ml of trypsin neutralization solution to the cell suspension. Cells were centrifuged at 300 g for 4 min in a Heraeus Megafuge 40 (Thermo Scientific) and seeded at a cell density of 5×10^5 cells per gelatin-coated 75 cm^2 cell culture flask (#L7230, Biochrom). […]

B1: recombinant P-selectin: recombinant human P-selectin (#ADP3-050, R&D Systems) (protein)
chain: WTYHYSTKAYSWNISRKYCQNRYTDLVAIQNKNEIDYLNKVLPYYSSYYWIGIRKNNKTWTWVGTKKALTNEAENWADNEPNNKRNNEDCVEIYIKSPSAPGKWNDEHCLKKKHALCYTASCQDMSCSKQGECLETIGNYTCSCYPGFYGPECEYVRECGELELPQHVLMNCSHPLGNFSFNSQCSFHCTDGYQVNGPSKLECLASGIWTNKPPQCLAAQCPPLKIPERGNMTCLHSAKAFQHQSSCSFSCEEGFALVGPEVVQCTASGVWTAPAPVCKAVQCQHLEAPSEGTMDCVHPLTAFAYGSSCKFECQPGYRVRGLDMLRCIDSGHWSAPLPTCEAISCEPLESPVHGSMDCSPSLRAFQYDTNCSFRCAEGFMLRGADIVRCDNLGQWTAPAPVCQALQCQDLPVPNEARVNCSHPFGAFRYQSVCSFTCNEGLLLVGASVLQCLATGNWNSVPPECQAIPCTPLLSPQNGTMTCVQPLGSSSYKSTCQFICDEGYSLSGPERLDCTRSGRWTDSPPMCEAIKCPELFAPEQGSLDCSDTRGEFNVGSTCHFSCDNGFKLEGPNNVECTTSGRWSATPPTCKGIASLPTPGVQCPALTTPGQGTMYCRHHPGTFGFNTTCYFGCNAGFTLIGDSTLSCRPSGQWTAVTPACRAVKCSELHVNKPIAMNCSNLWGNFSYGSICSFHCLEGQLLNGSAQTACQENGHWSTTVPTCQAGPLTIQEALTYFGGAVASTIGLIMGGTLLALLRKRFRQKDDGKCPLNPHSHLGTYGVFTNAAFDPSP
mean T cell-rolling velocity±SD (T cells pre-incubated with 5 μg/ml recombinant P-selectin, +AMG 103 10 ng/ml): 402±93 μm/sec
mean T cell-rolling velocity±SD (−AMG 103, +rec. P-selectin 5 μg/ml): 384±70 μm/sec
